Biological target: PRDM9Cst (Mus musculus (CAST/EiJ)) (UniProt Q96EQ9)
Assay: EMSA competition
Details: 10 mM Tris pH 7.5, 50 mM KCl, 1 mM DTT, 50 ng/ul poly(dI/dC), 0.05% NP-40, 0.5 pmol labelled dsDNA (printed pmol/l), 3 ul E. coli extract in 20 ul, 40 min, 5% …

Chain of PRDM9Cst (Mus musculus (CAST/EiJ)) (Q96EQ9 whole entry): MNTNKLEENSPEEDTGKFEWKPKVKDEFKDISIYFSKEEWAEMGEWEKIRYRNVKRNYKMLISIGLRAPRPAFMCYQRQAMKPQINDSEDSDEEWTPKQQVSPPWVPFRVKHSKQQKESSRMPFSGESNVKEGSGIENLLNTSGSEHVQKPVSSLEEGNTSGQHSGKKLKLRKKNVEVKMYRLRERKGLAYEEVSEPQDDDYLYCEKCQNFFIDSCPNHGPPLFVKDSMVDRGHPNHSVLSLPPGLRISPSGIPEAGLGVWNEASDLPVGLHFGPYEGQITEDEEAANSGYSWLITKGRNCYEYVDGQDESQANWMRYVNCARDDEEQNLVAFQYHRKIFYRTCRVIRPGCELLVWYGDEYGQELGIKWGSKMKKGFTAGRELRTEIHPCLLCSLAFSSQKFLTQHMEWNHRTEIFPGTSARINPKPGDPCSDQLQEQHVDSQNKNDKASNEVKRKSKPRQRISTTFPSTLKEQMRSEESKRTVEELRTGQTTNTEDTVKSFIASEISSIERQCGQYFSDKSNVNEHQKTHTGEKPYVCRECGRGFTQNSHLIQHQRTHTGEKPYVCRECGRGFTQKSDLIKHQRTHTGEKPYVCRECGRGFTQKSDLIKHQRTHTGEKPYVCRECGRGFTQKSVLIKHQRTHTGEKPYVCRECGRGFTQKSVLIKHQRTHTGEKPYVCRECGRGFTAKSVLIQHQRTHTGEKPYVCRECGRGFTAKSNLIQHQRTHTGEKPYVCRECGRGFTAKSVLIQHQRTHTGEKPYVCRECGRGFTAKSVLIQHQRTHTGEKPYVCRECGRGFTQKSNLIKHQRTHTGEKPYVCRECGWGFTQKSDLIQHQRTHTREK

ATAAGTGTTCAGACTTGGACTCTGCCCTTCCTTTAC (double strand) [Hlx1 36 bp CAST]
binding signal (scale: reference): 1

ATAGTGTGCAGACTTGGACCCTGCCCTTTCTTTACG (double strand) [Hlx1 36 bp B6]
binding signal (fold stronger than CAST sequence): 2.9

Reference: PMC4053984
